# B1: NTF2-related export protein 2 (Homo sapiens), Q9NPJ8-3 (parent)
# chain: MRKYRSHWSQGDREGYQRRSNYYEGPHTSHSSPADRTREEVVTPTLPEHTATRSQMATSLDFKTYVDQACRAAEEFVNIYYETMDKRRRALTRLYLDKATLIWNGNAVSGLDALNNFFDTLPSSEFQVNMLDCQPVHEQATQSQTTVLVVTSGTVKFDGNKQHFFNQNFLLTAQSTPNNTVWKIASDCFRFQDWSSS
# partner: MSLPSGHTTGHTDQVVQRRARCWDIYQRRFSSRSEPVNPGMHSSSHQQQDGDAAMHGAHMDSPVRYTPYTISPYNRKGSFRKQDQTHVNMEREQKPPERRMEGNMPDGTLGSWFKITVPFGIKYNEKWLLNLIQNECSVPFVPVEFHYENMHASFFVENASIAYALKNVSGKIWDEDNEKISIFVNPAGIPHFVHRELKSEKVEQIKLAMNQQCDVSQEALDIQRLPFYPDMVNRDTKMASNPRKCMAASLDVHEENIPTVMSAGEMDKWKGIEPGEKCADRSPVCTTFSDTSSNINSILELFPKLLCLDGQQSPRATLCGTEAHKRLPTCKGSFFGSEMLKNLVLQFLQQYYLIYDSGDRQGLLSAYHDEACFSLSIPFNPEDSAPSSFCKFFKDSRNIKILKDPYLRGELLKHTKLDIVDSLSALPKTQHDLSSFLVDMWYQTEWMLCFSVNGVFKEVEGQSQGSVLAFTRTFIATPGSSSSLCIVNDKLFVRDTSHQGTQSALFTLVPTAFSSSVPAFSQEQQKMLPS
# B2: NTF2-related export protein 2 (Homo sapiens), Q9NPJ8-3 (parent)
# chain: B1 chain
# partner: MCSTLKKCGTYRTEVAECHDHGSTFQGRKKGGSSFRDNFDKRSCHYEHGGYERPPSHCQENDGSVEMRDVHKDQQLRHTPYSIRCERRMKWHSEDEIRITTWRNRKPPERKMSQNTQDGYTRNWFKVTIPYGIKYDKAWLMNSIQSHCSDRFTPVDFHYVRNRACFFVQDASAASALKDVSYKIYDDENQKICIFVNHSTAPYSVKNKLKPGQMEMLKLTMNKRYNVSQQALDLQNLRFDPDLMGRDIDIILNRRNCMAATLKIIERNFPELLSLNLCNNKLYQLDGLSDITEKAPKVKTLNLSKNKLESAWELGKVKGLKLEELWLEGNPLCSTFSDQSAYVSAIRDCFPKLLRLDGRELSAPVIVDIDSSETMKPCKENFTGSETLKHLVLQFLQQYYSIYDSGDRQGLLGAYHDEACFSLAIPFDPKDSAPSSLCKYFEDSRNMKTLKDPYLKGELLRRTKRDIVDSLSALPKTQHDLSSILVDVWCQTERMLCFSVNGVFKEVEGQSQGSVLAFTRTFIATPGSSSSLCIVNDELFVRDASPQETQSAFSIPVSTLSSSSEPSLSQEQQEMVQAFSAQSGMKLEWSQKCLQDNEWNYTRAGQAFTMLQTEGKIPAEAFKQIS
# Variants of: B1
# Conditions: with NXF3, Q9H4D5-1
row,Variant,effect of a mutation on the interaction
1,A90S,with no effect

# Variants of: B2
# Conditions: with nxf2_human NXF2B
row,Variant,effect of a mutation on the interaction
1,A90S,with no effect
